Substitutions are numbered along the chain they refer to. Values joined by “and” are separate entries in the source; they are usually repeats but may differ in a detail not shown here. Equal entries are not always repeated. Where two headings read alike, the source gives them in different places.
How the values were obtained:
[1] = target: T1, 27mer cyno CD3 polypeptide conjugated to biotin (cynomolgus monkey); experiment: BIAcore T200 SPR; biotinylated 27mer CD3 peptide on SA chip; TDB flowed at 37 C
T1 sequence (peptide, biotin conjugated (site not stated)): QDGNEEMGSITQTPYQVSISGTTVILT

[2] = target: T1, 27mer cyno CD3 polypeptide conjugated to biotin (cynomolgus monkey); experiment: as above; remark: listed apart in the source
[3] = target: cynomolgus monkey LY6G6D-Fc (cynomolgus monkey); experiment: BIAcore SPR; LY6G6D-Fc immobilized; TDB flowed at 37 C
[4] = target: cynomolgus monkey LY6G6D-Fc (cynomolgus monkey); experiment: as above; remark: listed apart in the source
[5] = target: cynomolgus monkey LY6G6D-Fc (cynomolgus monkey); experiment: BIAcore SPR; two-cell TDB with 38E4.v1 arm

B1: LY6G6D TDB assembled using a one-cell system, anti-LY6G6D 20A12.QNTv12 arm (one-cell) and anti-CD3 38E4v1 (WT) arm (bispecific antibody, V domains shown)
VH 1: EVQLLESGGGLVQPGGSLRLSCAASGFDFVNNAMIWVREAPGKGLEWVSALSFADNTAYYATWASGRFTISRDSSKTTVYLQMNSLRAEDTAVYYCMRGDLWGPGTLVTVSS
VL 1: DIQMTQSPSTLSASVGDRVTITCQASESITRYLNWYQKKPGKAPKLLIYDASKLPSGVPSRFSGSGSGTEFTLTISSLQPDDFATYYCQSTSFRGRSYQNTFGGGTKVEIK
VH 2: EVQLVQSGAEVKKPGASVKVSCKASGFTFTSYYIHWVRKAPGQGLEWIGWIYPENDNTKYNEKFKDRVTITADTSTSTAYLELSSLRSEDTAVYYCARDGYSRYYFDYWGQGTLVTVSS
VL 2: DIVMTQSPDSLAVSLGERATINCKSSQSLLNSRTRKNYLAWYQEKPGQSPKLLIYWTSTRKSGVPDRFSGSGSGTDFTLTISSLQAEDVAVYYCKQSFILRTFGQGTKVEIK
Kd [1]: 15.9 nM | Kd [2]: 15.4 nM and 16.5 nM | koff [2]: 0.0399 s⁻¹ and 0.0437 s⁻¹ | kon [2]: 2.6e+06 M⁻¹ s⁻¹ and 2.65e+06 M⁻¹ s⁻¹

B2: LY6G6D TDB assembled using a one-cell system, anti-LY6G6D 20A12.QNTv12 arm (one-cell) and anti-CD3 38E4.v1 MD1 arm (bispecific antibody, V domains shown)
VH 1: B1 VH 1
VL 1: B1 VL 1
VH 2: B1 VH 2
VL 2: B1 VL 2 with S49P, T57A, K61E, K95T
Kd [3]: 3.63 nM | koff [3]: 0.000512 s⁻¹ | kon [3]: 141000 M⁻¹ s⁻¹ | Kd [1]: 26.1 nM | Kd [2]: 26.6 nM and 25.6 nM | koff [2]: 0.0383 s⁻¹ and 0.0376 s⁻¹ | kon [2]: 1.44e+06 M⁻¹ s⁻¹ and 1.47e+06 M⁻¹ s⁻¹

B3: LY6G6D TDB assembled using a one-cell system, anti-LY6G6D 20A12.QNTv12 arm (one-cell) and anti-CD3 38E4.v1 MD4 arm (bispecific antibody, V domains shown)
VH 1: B1 VH 1
VL 1: B1 VL 1
VH 2: B1 VH 2
VL 2: B1 VL 2 with S49P, T57A
Kd [3]: 2.62 nM | koff [3]: 0.000574 s⁻¹ | kon [3]: 219000 M⁻¹ s⁻¹ | Kd [1]: 14.4 nM | Kd [2]: 14 nM and 14.7 nM | koff [2]: 0.0433 s⁻¹ and 0.0426 s⁻¹ | kon [2]: 3.09e+06 M⁻¹ s⁻¹ and 2.89e+06 M⁻¹ s⁻¹

B4: LY6G6D TDB comprising the anti-LY6G6D 20A12.QNTv12 arm (two-cell) and the anti-CD3 38E4.v1 arm (bispecific antibody, V domains shown)
VH 1: B1 VH 1 with E39Q
VL 1: B1 VL 1 with K38Q
VH 2: B1 VH 2 with K39Q
VL 2: B1 VL 2 with E44Q
Kd [4]: 2.29 nM | koff [4]: 0.00038 s⁻¹ | kon [4]: 166000 M⁻¹ s⁻¹ | Kd [5]: 2.29 nM | Kd [3]: 1.92 nM | koff [3]: 0.000444 s⁻¹ | kon [3]: 231000 M⁻¹ s⁻¹ | Kd [1]: 14.8 nM | Kd [2]: 13 nM and 16.5 nM | koff [2]: 0.0337 s⁻¹ and 0.0364 s⁻¹ | kon [2]: 2.6e+06 M⁻¹ s⁻¹ and 2.21e+06 M⁻¹ s⁻¹
